Our source for the Kd values is publication doi:10.1101/2021.08.11.455960.

Assay [1] addresses Rhinolophus affinis angiotensin-converting enzyme 2 ectodomain (Rhinolophus affinis). Briefly: SPR. (Surface plasmon resonance follows binding to a sensor surface in real time, without labels.)
The target of assay [2] is human angiotensin-converting enzyme 2 ectodomain (human) (UniProt Q9BYF1). Briefly: SPR.
Sequence of UniProt Q9BYF1 (Q9BYF1 19-615): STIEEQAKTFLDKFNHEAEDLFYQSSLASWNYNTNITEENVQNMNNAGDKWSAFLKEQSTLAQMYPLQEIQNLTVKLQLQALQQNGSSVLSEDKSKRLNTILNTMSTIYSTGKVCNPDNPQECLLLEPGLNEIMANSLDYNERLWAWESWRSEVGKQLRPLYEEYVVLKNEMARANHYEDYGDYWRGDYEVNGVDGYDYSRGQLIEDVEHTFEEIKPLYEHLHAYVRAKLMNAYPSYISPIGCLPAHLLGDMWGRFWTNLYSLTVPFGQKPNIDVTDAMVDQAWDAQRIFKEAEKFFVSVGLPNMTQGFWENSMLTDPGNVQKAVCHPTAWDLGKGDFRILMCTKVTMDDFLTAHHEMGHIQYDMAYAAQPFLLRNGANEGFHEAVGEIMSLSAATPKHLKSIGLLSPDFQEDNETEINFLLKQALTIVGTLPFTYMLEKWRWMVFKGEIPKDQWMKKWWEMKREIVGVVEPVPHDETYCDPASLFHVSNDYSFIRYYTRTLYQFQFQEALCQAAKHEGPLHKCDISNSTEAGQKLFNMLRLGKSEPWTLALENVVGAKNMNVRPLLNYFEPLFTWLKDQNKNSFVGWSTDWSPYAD

In general, Kd refers to the concentration at which binding is half-saturated. A high value points to weaker binding. For “RaTG13 spike receptor binding domain (domain or fragment)”, the dissociation constant Kd in assay [1] came out at 12 nM; in assay [2], 21 nM.
